# ± gives the standard deviation of the averaged measurements.
# Tested on: Saccharomyces cerevisiae
# Assay: protein stability index of tFT-peptide fusion (C-terminal peptide) (PSI (0-1 scale)); higher = more stable (slower turnover)
# Conditions: genetic background: das1 deletion; temperature: 30 C
# Experimental: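 MPS profiling in S. cerevisiae of the tFT-X12 degron library: putative degron peptides plus stable controls, 12 aa, fused to the C-terminus of a sfGFP-mCherry timer. Cells are FACS-sorted into 8 mCherry/sfGFP bins and deep-sequenced. PSI runs from 0 (unstable) to 1 (stable). Backgrounds are wild type, das1Δ and doa10Δ at 30 °C, and wild type, das1Δ, cdc34-1 and cdc53-1 at 37 °C; 2-3 technical replicates each.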
# 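Further: PSI is a weighted mean of sequencing reads over stability bins, variants kept only with over 10 reads, mCherry proximal and sfGFP distal, peptide attached via GGGS linker.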
row,Sequence,protein stability index
1,YTHRYFVRLFAV,0.504 ± 0.019
2,YVLVVSFLACVF,0.142 ± 0.03
3,YWIFCYFFWGGV,0.358 ± 0.032

# Same assay, conditions: genetic background: das1 deletion; temperature: 37 C
row,Sequence,protein stability index
1,WFGGVRVPRHVV,0.7484 ± 0.0044
2,WFLWWCVCLFVF,0.403 ± 0.018
3,WFWTFIWLIMDD,0.521 ± 0.025
4,WGFLRVMVDIEL,0.32581 ± 9.3e-05
5,WGRTIGATFTGR,0.748 ± 0.0085
6,WILSIVVWGKRV,0.433 ± 0.026
7,WMSVKLLTLRLC,0.551 ± 0.019
8,WPRLSHIASFLA,0.729 ± 0.01
9,WRFFLLLFFFGF,0.601 ± 0.045
10,WRIDVTIVCLGY,0.3084 ± 0.0029
11,WSCGRVWQRFCD,0.718 ± 0.039
12,WSSAHVAWCYTT,0.7298 ± 0.0027
13,WTILTVMFCSYI,0.418 ± 0.031
14,WVDVAGIVAVAG,0.5809 ± 0.0037
15,WWGIVIVGGLGC,0.5691 ± 0.00075
16,YAFTCFLLVVAP,0.302 ± 0.011
17,YFFGWSVSLLIL,0.322 ± 0.0091
18,YFLAMFIISGGV,0.4798 ± 0.0021
19,YILPTPTVISLA,0.3667 ± 0.0033
20,YLGPHLRWARCV,0.768 ± 0.025
21,YLSLPSSIFLCF,0.59 ± 0.019
22,YLTLAGFPLNLF,0.762 ± 0.0092
23,YNNKITRYRRDS,0.752 ± 0.0077
24,YRNRKMYCITNC,0.743 ± 0.018
25,YTHRYFVRLFAV,0.6558 ± 0.0057
26,YVLVVSFLACVF,0.266 ± 0.0094
27,YWIFCYFFWGGV,0.518 ± 0.008

# Same assay, conditions: genetic background: doa10 deletion; temperature: 30 C
row,Sequence,protein stability index
1,WFGGVRVPRHVV,0.394 ± 0.024
2,WFLWWCVCLFVF,0.2527 ± 0.00072
3,WFWTFIWLIMDD,0.399 ± 0.027
4,WGFLRVMVDIEL,0.164 ± 0.0075
5,WGRTIGATFTGR,0.669 ± 0.01
6,WILSIVVWGKRV,0.0761 ± 0.025
7,WMSVKLLTLRLC,0.108 ± 0.031
8,WPRLSHIASFLA,0.26889 ± 7.6e-05
9,WRFFLLLFFFGF,0.425 ± 0.0095
10,WRIDVTIVCLGY,0.169 ± 0.01
11,WSCGRVWQRFCD,0.678 ± 0.018
12,WSSAHVAWCYTT,0.1926 ± 0.00045
13,WTILTVMFCSYI,0.282 ± 0.0044
14,WVDVAGIVAVAG,0.387 ± 0.0085
15,WWGIVIVGGLGC,0.384 ± 0.02
16,YAFTCFLLVVAP,0.1642 ± 0.0014
17,YFFGWSVSLLIL,0.108 ± 0.015
18,YFLAMFIISGGV,0.248 ± 0.011
19,YILPTPTVISLA,0.211 ± 0.0069
20,YLGPHLRWARCV,0.1228 ± 0.00053
21,YLSLPSSIFLCF,0.498 ± 0.024
22,YLTLAGFPLNLF,0.273 ± 0.0065
23,YNNKITRYRRDS,0.388 ± 0.012
24,YRNRKMYCITNC,0.207 ± 0.044
25,YTHRYFVRLFAV,0.206 ± 0.0073
26,YVLVVSFLACVF,0.104 ± 0.021
27,YWIFCYFFWGGV,0.3153 ± 0.0014

# Same assay, conditions: genetic background: wild type; temperature: 30 C
row,Sequence,protein stability index
1,WFGGVRVPRHVV,0.448 ± 0.018
2,WFLWWCVCLFVF,0.255 ± 0.012
3,WFWTFIWLIMDD,0.41 ± 0.039
4,WGFLRVMVDIEL,0.188 ± 0.023
5,WGRTIGATFTGR,0.685 ± 0.013
6,WILSIVVWGKRV,0.114 ± 0.017
7,WMSVKLLTLRLC,0.105 ± 0.017
8,WPRLSHIASFLA,0.326 ± 0.021
9,WRFFLLLFFFGF,0.428 ± 0.024
10,WRIDVTIVCLGY,0.202 ± 0.029
11,WSCGRVWQRFCD,0.631 ± 0.014
12,WSSAHVAWCYTT,0.217 ± 0.022
13,WTILTVMFCSYI,0.261 ± 0.022
14,WVDVAGIVAVAG,0.419 ± 0.016
15,WWGIVIVGGLGC,0.404 ± 0.011
16,YAFTCFLLVVAP,0.16 ± 0.015
17,YFFGWSVSLLIL,0.124 ± 0.021
18,YFLAMFIISGGV,0.263 ± 0.042
19,YILPTPTVISLA,0.256 ± 0.021
20,YLGPHLRWARCV,0.125 ± 0.016
21,YLSLPSSIFLCF,0.38 ± 0.015
22,YLTLAGFPLNLF,0.314 ± 0.017

# Reference: the supplement of paper PMC10724198
